Measured values reported in publication PMC9528458 (Science signaling, 2022).
Where two headings read alike, the source gives them in different places. Blank lines part the entries; values can stand above or below the binder they belong to.

Assays:
[1] = target: T1, mouse Fzd4 (residues 41-537), monomeric, in lipid nanodiscs (mouse, UniProt Q61088 41-537); assay: BLI
T1 sequence (looked up): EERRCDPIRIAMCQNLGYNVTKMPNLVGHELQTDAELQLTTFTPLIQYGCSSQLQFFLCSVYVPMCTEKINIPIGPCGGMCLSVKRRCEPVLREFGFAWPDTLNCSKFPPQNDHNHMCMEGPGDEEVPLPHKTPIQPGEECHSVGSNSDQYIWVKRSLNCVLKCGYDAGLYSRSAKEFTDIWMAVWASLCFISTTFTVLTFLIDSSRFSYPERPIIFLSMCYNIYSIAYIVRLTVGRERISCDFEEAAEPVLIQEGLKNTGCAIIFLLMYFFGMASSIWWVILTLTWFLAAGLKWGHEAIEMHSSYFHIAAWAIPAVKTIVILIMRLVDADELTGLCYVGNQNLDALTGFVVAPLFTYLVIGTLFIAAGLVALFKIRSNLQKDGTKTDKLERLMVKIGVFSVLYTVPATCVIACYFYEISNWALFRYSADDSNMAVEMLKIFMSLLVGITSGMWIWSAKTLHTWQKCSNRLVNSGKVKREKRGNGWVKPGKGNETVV

[2] = target: T1, mouse Fzd4 (residues 41-537), …; assay: BLI; remark: listed apart in the source
[3] = target: T1, mouse Fzd4 (residues 41-537), …; assay: BLI; remark: listed apart in the source
[4] = target: T1, mouse Fzd4 (residues 41-537), …; assay: BLI; remark: listed apart in the source
[5] = target: pre-formed xWnt8-FZD5 complex in nanodiscs (human | Xenopus laevis, UniProt Q13467 27-585; P28026 23-358); assay: BLI
[6] = target: T2, human FZD5 (residues 27-585), in lipid nanodiscs (human, UniProt Q13467 27-585); assay: BLI
[7] = target: human FZD7 (residues 33-574), in lipid nanodiscs (human, UniProt O75084 33-574); assay: BLI
[8] = target: T1, mouse Fzd4 (residues 41-537), …; assay: BLI; remark: listed apart in the source
[9] = target: T1, mouse Fzd4 (residues 41-537), …; assay: SEC
[10] = target: T2, human FZD5 (residues 27-585), in lipid …; assay: SEC
[11] = target: T1, mouse Fzd4 (residues 41-537), …; assay: BLI; remark: listed apart in the source

T2 sequence (Q13467 27-585): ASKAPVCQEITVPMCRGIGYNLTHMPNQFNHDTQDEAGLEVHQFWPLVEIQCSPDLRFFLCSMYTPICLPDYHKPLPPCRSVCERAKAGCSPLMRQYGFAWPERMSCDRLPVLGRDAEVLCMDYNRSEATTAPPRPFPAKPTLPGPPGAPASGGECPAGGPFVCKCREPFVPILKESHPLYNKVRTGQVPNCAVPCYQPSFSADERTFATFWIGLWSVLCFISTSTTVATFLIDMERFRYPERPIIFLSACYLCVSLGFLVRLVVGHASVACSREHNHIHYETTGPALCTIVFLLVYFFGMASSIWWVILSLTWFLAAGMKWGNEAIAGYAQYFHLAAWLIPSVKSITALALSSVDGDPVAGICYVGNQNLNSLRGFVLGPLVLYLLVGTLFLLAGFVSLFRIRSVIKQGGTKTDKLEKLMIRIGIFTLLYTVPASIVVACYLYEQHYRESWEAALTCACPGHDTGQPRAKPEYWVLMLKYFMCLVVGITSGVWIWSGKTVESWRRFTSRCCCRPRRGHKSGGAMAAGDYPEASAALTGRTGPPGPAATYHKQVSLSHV
Sequence of pre-formed xWnt8-FZD5 complex in nanodiscs (Q13467 27-585, one chain of several): as the sequence (Q13467 27-585) above

Kd [1]: ~2000 nM
Kd [2]: 1200 nM
Kd [3]: ~40 nM
Kd [4]: > 10000 nM
binding result [5]: binds
binding result [6]: binds
binding result [7]: binds
B1: DEP domain of mouse Dvl2 (residues 416-510) (domain or fragment, UniProt Q60838 416-510, looked up)
chain: GLSVHMDMASVTKAMAAPESGLEVRDRMWLKITIPNAFLGSDVVDWLYHHVEGFPERREARKYASGLLKAGLIRHTVNKITFSEQCYYVFGDLSG

binding result [8]: binds
B2: DEP domain of mouse Dvl2 bearing a G436P mutation (domain or fragment, UniProt Q60838 416-510, looked up)
chain: GLSVHMDMASVTKAMAAPESPLEVRDRMWLKITIPNAFLGSDVVDWLYHHVEGFPERREARKYASGLLKAGLIRHTVNKITFSEQCYYVFGDLSG

binding result [9]: binds
binding result [10]: binds
B3: Xenopus laevis Wnt8 (ligand, UniProt P28026 23-358, looked up)
chain: AWSVNNFLMTGPKAYLTYSASVAVGAQNGIEECKYQFAWERWNCPESTLQLATHNGLRSATRETSFVHAISSAGVMYTLTRNCSMGDFDNCGCDDSRNGRIGGRGWVWGGCSDNAEFGERISKLFVDGLETGQDARALMNLHNNEAGRLAVKETMKRTCKCHGISGSCSIQTCWLQLAEFRDIGNHLKIKHDQALKLEMDKRKMRSGNSADNRGAIADAFSSVAGSELIFLEDSPDYCLKNISLGLQGTEGRECLQSGKNLSQWERRSCKRLCTDCGLRVEEKKTEIISSCNCKFHWCCTVKCEQCKQVVIKHFCARRERDSNMLNTKRKNRGHRR

binding result [11]: binds
B4: human Norrin (ligand, UniProt Q00604 25-133, looked up)
chain: KTDSSFIMDSDPRRCMRHHYVDSISHPLYKCSSKMVLLARCEGHCSQASRSEPLVSFSTVLKQPFRSSCHCCRPQTSKLKALRLRCSGGMRLTATYRYILSCHCEECNS
